Laboratory results: publication PMC8168426 (ACS chemical biology, 2020)
Ends that are not written are not given here. * marks the point of attachment. NHCH2CH2(5-OH-indol-3-yl) = Oc1ccc2[nH]cc(CCN*)c2c1; fluorescein = fluorescein label (C-terminal); Me3 = trimethyl (trimethyl-lysine); Me2 = dimethyl (dimethyl-lysine)

T1: PHD1^287–347-KDAC8–6xHis fusion construct (UniProt P29375 287-347)
T1 sequence (looked up): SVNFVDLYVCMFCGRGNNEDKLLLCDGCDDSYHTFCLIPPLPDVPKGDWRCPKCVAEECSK

T2: GST-PHD1 (S287–K347) of histone demethylase KDM5A (UniProt P29375 287-347)
T2 sequence (looked up): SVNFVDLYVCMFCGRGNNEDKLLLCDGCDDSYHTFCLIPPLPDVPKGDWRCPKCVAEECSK


molecular target: T1, PHD1^287–347-KDAC8–6xHis fusion …; assay: PI-SAMDI; conditions: not given

Row | binding result | Molecule
1 | binds | ARTKQTARKSGC (not fully specified (C-terminus)) [unmodified H3 12-mer ligand (first 10 N-terminal residues of H3 and a GC moiety)]
2 | binds | ARTKQ(NHCH2CH2(5-OH-indol-3-yl))TARKSGC (not fully specified (C-terminus)) [Q5-serotonylated H3 12-mer ligand]
3 | binds | ARTKYTARKSGC [H3 Q5Y 12-mer ligand]
4 | binds | ARTKETARKSGC [H3 Q5E 12-mer ligand]
5 | binds | ARTK(Me2)QTARKSGC (not fully specified (C-terminus)) [H3K4me2 12-mer ligand]
6 | binds | ARTKQTARKSGC (not fully specified; trimethyl-lysine at 9 (H3K9me3)) [H3K9me3 12-mer ligand]
7 | binds | ARTK(Me)QTARKSGC (not fully specified (C-terminus)) [H3K4me1 12-mer ligand]
8 | binds | ARTK(Me3)QTARKSGC (not fully specified (C-terminus)) [H3K4me3 12-mer ligand]

system: PHD1 domain of KDM5A; assay: not given; conditions: result in words; cited from earlier work

Row | Molecule | Binding to PHD1 as previously established
9 | H3 R2A: well-characterized H3 12-mer ligand with R2A mutation (AATKQTARKSGC) | strongly reduces binding
10 | H3K9me3: well-characterized H3 12-mer ligand bearing K9me3 (ARTKQTARKSGC; trimethyl-lysine at 9 (H3K9me3)) [Ligand H3K9me3] | does not impact PHD1-H3 association
11 | N-terminally acetylated H3: N-terminally acetylated H3 12-mer peptide (Ac-ARTKQTARKSGC) | not bind PHD1

molecular target: T2, GST-PHD1 (S287–K347) of histone …; assay: fluorescence polarisation; conditions: not given

Row | binding result | Molecule
12 | binds | ARTKQTARKSGC (not fully specified (C-terminus)) [unmodified H3 12-mer ligand (first 10 N-terminal residues of H3 and a GC moiety)]
13 | binds | ARTKQ(NHCH2CH2(5-OH-indol-3-yl))TARKSGC (not fully specified (C-terminus)) [Q5-serotonylated H3 12-mer ligand]
14 | binds | ARTKQTARKS-fluorescein (peptide, UniProt P68431 2-11, looked up) [H3 peptide (1–10) carrying a C-terminal fluorescein label]

molecular target: T1, PHD1^287–347-KDAC8–6xHis fusion …; assay: PI-SAMDI; conditions: not given; remark: another data set of the same source

Row | binding result | Molecule
15 | binds | ARTKRC [H3 Q5R 6-mer ligand (ARXKZC with X = T, Z = R)]
16 | binds | ARYKQC [H3 T3Y 6-mer ligand (ARXKZC with X = Y, Z = Q)]
17 | binds | ARTKSC [H3 Q5S 6-mer ligand (ARXKZC with X = T, Z = S)]
18 | binds | ARVKWC [H3 T3V Q5W 6-mer ligand (ARXKZC with X = V, Z = W)]
19 | binds | ARYKYC [H3 T3Y Q5Y 6-mer ligand (ARXKZC with X = Y, Z = Y)]
20 | binds | ARVKRC [H3 T3V Q5R 6-mer ligand (ARXKZC with X = V, Z = R)]
21 | binds | ARYKRC [H3 T3Y Q5R 6-mer ligand (ARXKZC with X = Y, Z = R)]

molecular target: T2, GST-PHD1 (S287–K347) of histone …; assay: fluorescence polarisation; conditions: not given; remark: another data set of the same source

Row | Ki [µM] | Molecule
22 | 0.75 | ARTKATARKS (peptide, UniProt P68431 2-11, looked up) [H3 Q5A 10-mer peptide]
23 | > 100 | ARYKQTARKS (peptide, UniProt P68431 2-11, looked up) [H3 T3Y 10-mer peptide]
24 | > 100 | ARAKQTARKS (peptide, UniProt P68431 2-11, looked up) [H3 T3A 10-mer peptide]
25 | > 100 | ARFKQTARKS (peptide, UniProt P68431 2-11, looked up) [H3 T3F 10-mer peptide]
26 | > 100 | ARDKQTARKS (peptide, UniProt P68431 2-11, looked up) [H3 T3D 10-mer peptide]
27 | > 100 | ARYKYTARKS (peptide, UniProt P68431 2-11, looked up) [H3 T3Y Q5Y 10-mer peptide]
